Test results published in publication PMC4455283, “Crystal structure of TRIM20 C-terminal coiled-coil/B30.2 fragment: implications for the recognition of higher order oligomers” (Scientific Reports, 2015).

Legend:
[1] = biological target: the molecule itself; assay: AUC; sedimentation velocity analytical ultracentrifugation at 4 °C
pro-interleukin-1β = biological target: T1, pro-interleukin-1β (UniProt P01584 1-269); assay: SPR; TRIM20Δ413 and pro-IL-1β; heterogeneous ligand model; apparent dissociation constants; immobilised partner not told in the text shown; details: both partners purified
T1 construct: pro-interleukin-1β (uncleaved precursor of IL-1β); Printed mass 31.9 kDa; The FLAG tag is named for the co-immunoprecipitation; also called pro-IL-1β; FLAG-tagged pro-IL-1β; source: purified

apparent KD, heterogeneous ligand model, first constant (pro-interleukin-1β): 0.7 µM | apparent KD, heterogeneous ligand model, second constant (pro-interleukin-1β): 13.7 µM
B1: TRIM20Δ413 (TRIM20 coiled-coil/B30.2 fragment) (domain or fragment, human, UniProt O15553 414-781, looked up)
chain: EVALEHKKKIQKQLEHLKKLRKSGEEQRSYGEEKAVSFLKQTEALKQRVQRKLEQVYYFLEQQEHFFVASLEDVGQMVGQIRKAYDTRVSQDIALLDALIGELEAKECQSEWELLQDIGDILHRAKTVPVPEKWTTPQEIKQKIQLLHQKSEFVEKSTKYFSETLRSEMEMFNVPELIGAQAHAVNVILDAETAYPNLIFSDDLKSVRLGNKWERLPDGPQRFDSCIIVLGSPSFLSGRRYWEVEVGDKTAWILGACKTSISRKGNMTLSPENGYWVVIMMKENEYQASSVPPTRLLIKEPPKRVGIFVDYRVGSISFYNVTARSHIYTFASCSFSGPLQPIFSPGTRDGGKNTAPLTICPVGGQGPD
notes: TRIM20 (pyrin, marenostrin), human, UniProt O15553; construct starting with E414, comprising the CHS (coiled-coil, E414-N586) and B30.2 (E589-G776) domains; Calculated monomer mass printed as 42 737 Da (85.7 kDa dimer); also called CHS-B30.2; TRIM20 C-terminal coiled-coil/B30.2 fragment; source: purified
stoichiometry N [1]: 2
